Experimental data: the supplement of paper PMC10126150
± gives the standard deviation of the averaged measurements.

Test system: ATP
Assay: switch fluorescence ratio, 500 uM ATP over buffer (Cy3 cluster intensity, sum of 5 cycles each) (fold (ratio)); higher = stronger signal-on switching upon ATP binding; sequences stand for … in TCGTCGGCAGCGTCAGATGTGTATAAGAGACAGTTTTTTTTTTTTTTTTTTTTTTTTT…TC
Details: aptamer strand: ATP DNA aptamer (quencher-CACCTGGGGGAGTATTGCGGAGGAAGG + anchor), 100 nM annealed; ATP concentration: 500 uM
In short: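 Imaging in selection buffer was followed by imaging after 15 min with 500 uM ATP at 22 °C, for Cy3-labelled switching-strand clusters annealed to 100 nM quencher-labelled ATP aptamer on a modified Illumina MiSeq flow-cell. Five of these buffer/ATP cycles ran, separated by NaOH stripping and re-annealing. The fluorescence ratio per cluster is summed target-cycle over summed buffer-cycle Cy3 intensity, averaged per switch-domain sequence; clusters outside 100-1000 RFU were removed.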
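Further: ATP exposure 15 min at 22 °C before imaging.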

| Sequence | switch fluorescence ratio |
| --- | --- |
| TGTTTATGGG | 1.01 ± 0.033 |
| TGTTTATTCG | 0.97 ± 0.034 |
| TGTTTCATGC | 1.07 ± 0.16 |
| TGTTTCATTG | 0.976 ± 0.018 |
| TGTTTCCTTT | 1 ± 0.019 |
| TGTTTCGTGT | 0.982 ± 0.032 |
| TGTTTCTAAT | 0.999 ± 0.02 |
| TGTTTCTGGG | 0.999 ± 0.05 |
| TGTTTGAAGC | 0.9679 ± 0.0096 |
| TGTTTGACGT | 1.03 ± 0.014 |
| TGTTTGAGGG | 1.02 ± 0.024 |
| TGTTTGAGTT | 0.987 ± 0.039 |
| TGTTTGCTGT | 1.03 ± 0.074 |
| TGTTTGCTTG | 0.993 ± 0.021 |
| TGTTTGGAAG | 1.05 ± 0.056 |
| TGTTTGGGCT | 1.02 ± 0.041 |
| TGTTTGGGTT | 0.978 ± 0.012 |
| TGTTTTAAAG | 1.01 ± 0.061 |
| TGTTTTACTA | 0.986 ± 0.031 |
| TGTTTTATAT | 1.01 ± 0.021 |
| TGTTTTATTG | 1.01 ± 0.016 |
| TGTTTTATTT | 0.984 ± 0.018 |
| TGTTTTCGGA | 1.01 ± 0.012 |
| TGTTTTCTGT | 0.976 ± 0.04 |
| TGTTTTGTAT | 1.07 ± 0.052 |

| Sequence | switch fluorescence ratio |
| --- | --- |
| TGTTTTTAGG | 0.989 ± 0.023 |
| TGTTTTTATT | 1.015 ± 0.0047 |
| TGTTTTTGT | 1.18 ± 0.29 |
| TGTTTTTTCG | 0.992 ± 0.024 |
| TGTTTTTTTG | 0.983 ± 0.041 |
| TTAAAAAAGT | 1.01 ± 0.02 |
| TTAAAAACAT | 1.024 ± 0.0014 |
| TTAAAAATAA | 1.04 ± 0.073 |
| TTAAAACCCC | 1.04 ± 0.054 |
| TTAAAACGGA | 1.02 ± 0.036 |
| TTAAAACTTT | 1.02 ± 0.025 |
| TTAAAAGATT | 0.99 ± 0.075 |
| TTAAAAGGGG | 1.01 ± 0.044 |
| TTAAAAGGT | 1.04 ± 0.056 |
| TTAAAAGTGG | 1.01 ± 0.022 |
| TTAAAATACA | 1.1 ± 0.14 |
| TTAAACCTAA | 1.02 ± 0.052 |
| TTAAACCTCT | 1 ± 0.019 |
| TTAAACCTTG | 1.15 ± 0.042 |
| TTAAACGGGG | 1.01 ± 0.035 |
| TTAAAGCGGA | 1.01 ± 0.021 |
| TTAAAGGCAG | 0.989 ± 0.025 |
| TTAAAGGGTT | 1.04 ± 0.12 |
| TTAAAGTAGG | 0.992 ± 0.015 |
| TTAAAGTGAG | 0.99 ± 0.037 |

| Sequence | switch fluorescence ratio |
| --- | --- |
| TTAAAGTGAT | 0.995 ± 0.036 |
| TTAAAGTGCT | 0.984 ± 0.021 |
| TTAAAGTGGT | 0.9789 ± 0.00047 |
| TTAAAGTTAT | 0.986 ± 0.061 |
| TTAAAGTTTG | 1.06 ± 0.063 |
| TTAAATAACT | 1.12 ± 0.16 |
| TTAAATAATC | 1 ± 0.035 |
| TTAAATAGAT | 1.01 ± 0.02 |
| TTAAATAGGG | 1 ± 0.057 |
| TTAAATCCGT | 0.989 ± 0.021 |
| TTAAATGGG | 0.9799 ± 0.0063 |
| TTAAATGGTG | 1.05 ± 0.072 |
| TTAAATTATC | 1.041 ± 0.0058 |
| TTAAATTGCT | 0.991 ± 0.025 |
| TTAACACGTA | 1.2 ± 0.024 |
| TTAACCAAGA | 0.9755 ± 0.0022 |
| TTAACGGGAA | 1 ± 0.024 |
| TTAACGGGGA | 1.02 ± 0.017 |
| TTAACGGGGG | 0.984 ± 0.043 |
| TTAACGGTTC | 0.983 ± 0.017 |
| TTAACGTAAG | 1 ± 0.037 |
| TTAACTATGG | 1.016 ± 0.0066 |
| TTAACTGGGA | 0.998 ± 0.026 |
| TTAACTTTTT | 1.07 ± 0.053 |
| TTAAGAACAA | 1.02 ± 0.03 |

| Sequence | switch fluorescence ratio |
| --- | --- |
| TTAAGAACG | 1.002 ± 0.0087 |
| TTAAGAATTG | 1.04 ± 0.12 |
| TTAAGAGGTG | 1.09 ± 0.034 |
| TTAAGATTGG | 0.959 ± 0.015 |
| TTAAGCAGTT | 0.9853 ± 0.0056 |
| TTAAGCCCGG | 1.04 ± 0.066 |
| TTAAGCCTG | 1.012 ± 0.0021 |
| TTAAGCGAAT | 1.002 ± 0.0059 |
| TTAAGCGGGA | 1.01 ± 0.015 |
| TTAAGCTAGG | 1.004 ± 0.0054 |
| TTAAGGAGGT | 1.03 ± 0.099 |
| TTAAGGGAGC | 1.02 ± 0.052 |
| TTAAGGGCTT | 1.01 ± 0.021 |
| TTAAGGTAGC | 1.03 ± 0.013 |
| TTAAGGTATG | 0.997 ± 0.019 |
| TTAAGGTTAA | 1 ± 0.029 |
| TTAAGGTTTT | 1 ± 0.03 |
| TTAAGTAATG | 1.002 ± 0.0016 |
| TTAAGTAGGG | 1.01 ± 0.029 |
| TTAAGTAGTT | 1.02 ± 0.0099 |
| TTAAGTGCGG | 1 ± 0.02 |
| TTAAGTGCTG | 1.02 ± 0.036 |
| TTAAGTTACA | 1.05 ± 0.032 |
| TTAAGTTCGG | 1.02 ± 0.013 |
| TTAAGTTTTC | 0.979 ± 0.015 |

| Sequence | switch fluorescence ratio |
| --- | --- |
| TTAAGTTTTT | 0.98835 ± 0.00077 |
| TTAATAAGGT | 1.01 ± 0.035 |
| TTAATAATAT | 1 ± 0.021 |
| TTAATAGCGG | 0.997 ± 0.049 |
| TTAATAGTGA | 0.973 ± 0.021 |
| TTAATATAGG | 0.999 ± 0.011 |
| TTAATCCATG | 0.988 ± 0.011 |
| TTAATCTGCG | 1.01 ± 0.032 |
| TTAATGAATA | 1.01 ± 0.035 |
| TTAATGGGCG | 1.09 ± 0.18 |
| TTAATGGGTT | 1.09 ± 0.14 |
| TTAATGTGGA | 0.993 ± 0.046 |
| TTAATTATTT | 0.998 ± 0.029 |
| TTAATTGTAT | 0.992 ± 0.034 |
| TTAATTGTGT | 0.993 ± 0.0095 |
| TTAATTTAAG | 0.992 ± 0.038 |
| TTAATTTGGG | 1.01 ± 0.024 |
| TTAATTTGTG | 0.986 ± 0.017 |
| TTAATTTTAT | 0.991 ± 0.015 |
| TTACAAGGAT | 0.997 ± 0.012 |
| TTACAAGGGT | 0.973 ± 0.023 |
| TTACAATCAA | 0.999 ± 0.047 |
| TTACACGTAA | 1.31 ± 0.019 |
| TTACACTGTG | 1.001 ± 0.0054 |
| TTACAGTTCG | 1.013 ± 0.0082 |

| Sequence | switch fluorescence ratio |
| --- | --- |
| TTACATAAGG | 1.006 ± 0.0048 |
| TTACATCGGA | 0.982 ± 0.03 |
| TTACATTGTT | 1.06 ± 0.11 |
| TTACCAGGGG | 1.4 ± 0.25 |
| TTACCATCGG | 1.01 ± 0.024 |
| TTACCATGGA | 0.995 ± 0.0021 |
| TTACCCGGAA | 1.9 ± 0.048 |
| TTACCCTAGG | 1.14 ± 0.024 |
| TTACCGGATT | 0.993 ± 0.022 |
| TTACCGGGGG | 1.042 ± 0.0095 |
| TTACCGGGGT | 0.995 ± 0.035 |
| TTACCGTCGC | 1.037 ± 0.0027 |
| TTACCTACTT | 1.17 ± 0.12 |
| TTACCTTTGG | 1.005 ± 0.0087 |
| TTACGCAACC | 2.91 ± 0.58 |
| TTACGCCGTT | 0.9446 ± 0.0049 |
| TTACGCTATT | 3.4 ± 2.4 |
| TTACGGGCGC | 0.9684 ± 0.0086 |
| TTACGGGCTT | 0.989 ± 0.027 |
| TTACGGGGCC | 0.977 ± 0.049 |
| TTACGGGGTG | 1.02 ± 0.019 |
| TTACGGTAGG | 1.01 ± 0.075 |
| TTACGGTGGC | 0.989 ± 0.045 |
| TTACGTCCGT | 1.04 ± 0.02 |
| TTACGTGAGG | 1.02 ± 0.045 |

| Sequence | switch fluorescence ratio |
| --- | --- |
| TTACGTTAAT | 1.18 ± 0.095 |
| TTACTACCGG | 1.04 ± 0.012 |
| TTACTCGCAT | 2.3 ± 1.2 |
| TTACTCTGGG | 1.003 ± 0.0032 |
| TTACTGCGTA | 1.02 ± 0.015 |
| TTACTTATTA | 1.07 ± 0.018 |
| TTACTTGATG | 1.02 ± 0.031 |
| TTACTTGCGT | 1.06 ± 0.035 |
| TTACTTTAGG | 1.05 ± 0.023 |
| TTACTTTCCG | 1.11 ± 0.019 |
| TTACTTTGAA | 1.01 ± 0.029 |
| TTAGAAAAAG | 0.9811 ± 0.0052 |
| TTAGAAATGT | 1.42 ± 0.84 |
| TTAGAACAAG | 1.01 ± 0.019 |
| TTAGAACTGA | 1.02 ± 0.023 |
| TTAGAAGCCT | 1.14 ± 0.02 |
| TTAGAAGGTA | 0.995 ± 0.035 |
| TTAGAATGGG | 1.12 ± 0.14 |
| TTAGAATGTA | 0.99 ± 0.023 |
| TTAGAGAGGA | 0.987 ± 0.026 |
| TTAGAGGCAG | 0.967 ± 0.025 |
| TTAGAGGCGC | 1.035 ± 0.0095 |
| TTAGAGGGAG | 1.03 ± 0.042 |
| TTAGAGGGCA | 0.99086 ± 0.00097 |
| TTAGAGGTAA | 1.01 ± 0.019 |

| Sequence | switch fluorescence ratio |
| --- | --- |
| TTAGAGTACG | 1.036 ± 0.0075 |
| TTAGATAGTA | 1.01 ± 0.043 |
| TTAGATGAAG | 0.987 ± 0.031 |
| TTAGATGGGG | 1.01 ± 0.11 |
| TTAGATTACG | 0.998 ± 0.021 |
| TTAGCATATA | 2.42 ± 1.9 |
| TTAGCATGAT | 1.14 ± 0.2 |
| TTAGCCACTT | 1.06 ± 0.066 |
| TTAGCCCTCA | 0.981 ± 0.014 |
| TTAGCGACGG | 0.992 ± 0.03 |
| TTAGCGGGTT | 0.988 ± 0.048 |
| TTAGCGGT | 1.004 ± 0.0093 |
| TTAGCTTTGA | 0.992 ± 0.022 |
| TTAGGAGCTT | 1 ± 0.014 |
| TTAGGATAGG | 1.005 ± 0.0021 |
| TTAGGCACGC | 1.01 ± 0.023 |
| TTAGGCGCCC | 0.981 ± 0.029 |
| TTAGGCGGGG | 1 ± 0.061 |
| TTAGGCGTGG | 1.017 ± 0.006 |
| TTAGGCTAAT | 1.02 ± 0.025 |
| TTAGGCTGCG | 1.06 ± 0.1 |
| TTAGGGACAA | 1.039 ± 0.0064 |
| TTAGGGAGAG | 0.996 ± 0.016 |
| TTAGGGATGG | 0.992 ± 0.023 |
| TTAGGGCTTG | 0.992 ± 0.039 |
